B1: PPApTPP (Myt1-T412), rhodamine-labeled (peptide)
peptide: PPA[pT]PP
modifications: also: tetramethylrhodamine label on an amine
notes: Six-residue peptide derived from human Myt1
B2: PPGpSPP (Myt1-S416), rhodamine-labeled (peptide)
peptide: PPG[pS]PP
modifications: also: tetramethylrhodamine label on an amine
notes: as for B1
B3: STSpTPR (Myt1-T455), rhodamine-labeled (peptide)
peptide: STS[pT]PR
modifications: also: tetramethylrhodamine label on an amine
notes: as for B1
B4: VPRpTPV (Cdc25c-T48), rhodamine-labeled (peptide)
peptide: VPR[pT]PV
modifications: also: tetramethylrhodamine label on an amine
notes: Six-residue peptide derived from human Cdc25c

From patent US7127357 (SALK INSTITUTE FOR BIOLOGICAL STUDIES, dated 2006) come the findings set out here.

Non-standard residues stand in square brackets, D forms with d. No end group written: not given here. pT = C[C@@H](OP(=O)(O)O)[C@H](N)C(=O)O; pS = N[C@@H](COP(=O)(O)O)C(=O)O

For the assay, the target named is T1, isolated PPIase domain of human Pin1 (human, UniProt Q13526 50-163).
T1 construct: range 50-163; also called Pin1 PPIase domain
T1 sequence (Q13526 50-163 limits assumed): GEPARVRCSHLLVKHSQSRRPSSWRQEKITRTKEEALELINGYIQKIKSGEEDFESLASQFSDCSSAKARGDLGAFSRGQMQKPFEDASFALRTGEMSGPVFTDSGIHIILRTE
Put plainly: fluorescence anisotropy, rhodamine-labeled peptide. (Polarisation of emitted light reports the rotation of a fluorescent probe.)
Description: Binding Analysis. […] Lyophilized peptides were dissolved in 25 mM HEPES-Na^+ (pH 7.5), 100 mM NaCl, 1 mM DTT and stored for short periods of time at −20° C. Peptides were labeled with the amine reactive reagent tetramethylrhodamine-5-(and-6)-isothiocyanate (Molecular Probes, Inc. Eugene, Oreg.) using a 2:1 molar ratio of rhodamine to peptide in 0.1 M sodium bicarbonate (pH 9.0) at ambient temperature for 10 hr. Fluorescence data were collected on a PTI Alphascan spectrofluorimeter (Photon Technology Instruments, Santa Clara, Calif.).
Consider B1, for which the binding result was “no binding”. Under B2 stands “no binding”; under B3, “no binding”; under B4, “no binding”.
